Results as given in patent US20140080757A1 (ZEALAND PHARMA A S, published 2014).
Numbered stars: 1 amine (or outer) side, 2 acyl side, 3 side chain; on linkers, the order of the positions; unused ones are H or OH. Square brackets hold non-standard residues; d marks the D form. Side chains are listed from the residue outwards. * marks the point of attachment. γGlu = O=C(O)[C@H](CCC(=O)[*:2])N[*:1]; Palmitoyl = CCCCCCCCCCCCCCCC(=O)*; Aib = CC(C)(N)C(=O)O

T1: endogenous GLP-1 receptor of a murine insulinoma cell line (murine, UniProt O35659 22-463)
T1 sequence (looked up): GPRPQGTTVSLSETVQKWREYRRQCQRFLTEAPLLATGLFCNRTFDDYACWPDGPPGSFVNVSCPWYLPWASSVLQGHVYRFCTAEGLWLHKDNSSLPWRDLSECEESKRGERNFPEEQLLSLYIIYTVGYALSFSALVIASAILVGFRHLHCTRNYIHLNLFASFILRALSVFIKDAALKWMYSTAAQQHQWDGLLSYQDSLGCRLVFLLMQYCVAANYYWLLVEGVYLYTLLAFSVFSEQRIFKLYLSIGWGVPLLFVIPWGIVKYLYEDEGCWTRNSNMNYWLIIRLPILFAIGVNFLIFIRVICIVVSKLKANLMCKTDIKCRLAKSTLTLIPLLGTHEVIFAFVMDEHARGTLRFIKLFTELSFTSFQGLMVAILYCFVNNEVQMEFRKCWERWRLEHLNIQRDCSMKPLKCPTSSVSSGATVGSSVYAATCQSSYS


Legend:
Assay in all cases: cell-based or functional assay
[1] = target: human glucagon-like peptide 1 receptor (GLP-1R) (human, UniProt P43220 24-463)
[2] = target: human glucagon receptor (Glucagon-R) (human, UniProt P47871 26-477)
human glucagon receptor (Glucagon-R), sequence (P47871 26-477): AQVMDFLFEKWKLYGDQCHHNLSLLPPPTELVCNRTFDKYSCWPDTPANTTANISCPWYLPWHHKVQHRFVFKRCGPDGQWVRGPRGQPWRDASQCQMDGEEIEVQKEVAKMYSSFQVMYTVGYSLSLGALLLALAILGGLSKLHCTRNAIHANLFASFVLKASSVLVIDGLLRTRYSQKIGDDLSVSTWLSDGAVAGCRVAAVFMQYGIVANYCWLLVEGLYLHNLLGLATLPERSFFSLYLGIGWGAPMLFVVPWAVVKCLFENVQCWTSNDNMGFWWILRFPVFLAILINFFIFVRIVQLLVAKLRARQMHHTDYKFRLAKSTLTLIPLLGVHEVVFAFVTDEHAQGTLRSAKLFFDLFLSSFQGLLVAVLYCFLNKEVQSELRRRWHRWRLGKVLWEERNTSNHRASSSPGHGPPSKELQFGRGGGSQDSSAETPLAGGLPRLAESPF

[3] = target: T1, endogenous GLP-1 receptor of a murine …
[4] = target: endogenous glucagon receptor of primary rat hepatocytes (rat, UniProt P30082 27-485)
endogenous glucagon receptor of primary rat hepatocytes, sequence (P30082 27-485): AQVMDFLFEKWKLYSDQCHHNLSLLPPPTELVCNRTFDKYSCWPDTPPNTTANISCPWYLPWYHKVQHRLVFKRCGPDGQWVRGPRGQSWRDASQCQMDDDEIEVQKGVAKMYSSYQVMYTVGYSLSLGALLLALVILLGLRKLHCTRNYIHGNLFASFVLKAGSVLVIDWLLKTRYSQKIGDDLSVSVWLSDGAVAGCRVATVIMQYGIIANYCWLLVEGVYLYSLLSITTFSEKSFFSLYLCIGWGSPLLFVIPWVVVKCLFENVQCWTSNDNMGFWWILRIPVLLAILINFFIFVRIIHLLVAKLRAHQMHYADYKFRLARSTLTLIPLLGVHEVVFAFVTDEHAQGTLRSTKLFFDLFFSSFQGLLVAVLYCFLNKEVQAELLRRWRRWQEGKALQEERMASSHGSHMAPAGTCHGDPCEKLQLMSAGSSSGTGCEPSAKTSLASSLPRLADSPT

| EC50 hGLP-1R CHO-K1 [nM] (cAMP) [1] | Ratio GLP-1/Glucagon (EC50 hGLP-1R / EC50 hGCGR) [1] [ratio] | EC50 hGCGR CHO-K1 [nM] (cAMP) [2] | EC50 GLP-1R (murine insulinoma cells) [nM] (cAMP) [3] | EC50 GLP-1R Rat hepat. [nM] (inhibition of glycogen synthesis) [4] | Binder |
| --- | --- | --- | --- | --- | --- |
| 0.54 | 0.6 | 0.9 | 1.47 |  | H-H[Aib]QGTFTSDYSKYLDSK([γGlu-Palmitoyl])AAHDFVEWLLS-OH (SMILES CCCCCCCCCCCCCCCC(=O)N[C@@H](CCC(=O)NCCCC[C@H](NC(=O)[C@H](CO)NC(=O)[C@H](CC(=O)O)NC(=O)[C@H](CC(C)C)NC(=O)[C@H](Cc1ccc(O)cc1)NC(=O)[C@H](CCCCN)NC(=O)[C@H](CO)NC(=O)[C@H](Cc1ccc(O)cc1)NC(=O)[C@H](CC(=O)O)NC(=O)[C@H](CO)NC(=O)[C@@H](NC(=O)[C@H](Cc1ccccc1)NC(=O)[C@@H](NC(=O)CNC(=O)[C@H](CCC(N)=O)NC(=O)C(C)(C)NC(=O)[C@@H](N)Cc1c[nH]cn1)[C@@H](C)O)[C@@H](C)O)C(=O)N[C@@H](C)C(=O)N[C@@H](C)C(=O)N[C@@H](Cc1c[nH]cn1)C(=O)N[C@@H](CC(=O)O)C(=O)N[C@@H](Cc1ccccc1)C(=O)N[C@H](C(=O)N[C@@H](CCC(=O)O)C(=O)N[C@@H](Cc1c[nH]c2ccccc12)C(=O)N[C@@H](CC(C)C)C(=O)N[C@@H](CC(C)C)C(=O)N[C@@H](CO)C(=O)O)C(C)C)C(=O)O) [Compound 1] |
| 0.35 | 0.76 | 0.46 | 1.14 | 2.87 | H-HSQGTFTSDYSRYLDSK([γGlu-Palmitoyl])AAEDFVEWLLRA-NH2 (SMILES CCCCCCCCCCCCCCCC(=O)N[C@@H](CCC(=O)NCCCC[C@H](NC(=O)[C@H](CO)NC(=O)[C@H](CC(=O)O)NC(=O)[C@H](CC(C)C)NC(=O)[C@H](Cc1ccc(O)cc1)NC(=O)[C@H](CCCNC(=N)N)NC(=O)[C@H](CO)NC(=O)[C@H](Cc1ccc(O)cc1)NC(=O)[C@H](CC(=O)O)NC(=O)[C@H](CO)NC(=O)[C@@H](NC(=O)[C@H](Cc1ccccc1)NC(=O)[C@@H](NC(=O)CNC(=O)[C@H](CCC(N)=O)NC(=O)[C@H](CO)NC(=O)[C@@H](N)Cc1c[nH]cn1)[C@@H](C)O)[C@@H](C)O)C(=O)N[C@@H](C)C(=O)N[C@@H](C)C(=O)N[C@@H](CCC(=O)O)C(=O)N[C@@H](CC(=O)O)C(=O)N[C@@H](Cc1ccccc1)C(=O)N[C@H](C(=O)N[C@@H](CCC(=O)O)C(=O)N[C@@H](Cc1c[nH]c2ccccc12)C(=O)N[C@@H](CC(C)C)C(=O)N[C@@H](CC(C)C)C(=O)N[C@@H](CCCNC(=N)N)C(=O)N[C@@H](C)C(N)=O)C(C)C)C(=O)O) [Compound 6] |
| 0.77 | 2.48 | 0.31 | 1.41 | 0.43 | H-HSQGTFTSDYSKYLDSK([γGlu-Palmitoyl])AAHDFVEWLLSA-OH (SMILES CCCCCCCCCCCCCCCC(=O)N[C@@H](CCC(=O)NCCCC[C@H](NC(=O)[C@H](CO)NC(=O)[C@H](CC(=O)O)NC(=O)[C@H](CC(C)C)NC(=O)[C@H](Cc1ccc(O)cc1)NC(=O)[C@H](CCCCN)NC(=O)[C@H](CO)NC(=O)[C@H](Cc1ccc(O)cc1)NC(=O)[C@H](CC(=O)O)NC(=O)[C@H](CO)NC(=O)[C@@H](NC(=O)[C@H](Cc1ccccc1)NC(=O)[C@@H](NC(=O)CNC(=O)[C@H](CCC(N)=O)NC(=O)[C@H](CO)NC(=O)[C@@H](N)Cc1c[nH]cn1)[C@@H](C)O)[C@@H](C)O)C(=O)N[C@@H](C)C(=O)N[C@@H](C)C(=O)N[C@@H](Cc1c[nH]cn1)C(=O)N[C@@H](CC(=O)O)C(=O)N[C@@H](Cc1ccccc1)C(=O)N[C@H](C(=O)N[C@@H](CCC(=O)O)C(=O)N[C@@H](Cc1c[nH]c2ccccc12)C(=O)N[C@@H](CC(C)C)C(=O)N[C@@H](CC(C)C)C(=O)N[C@@H](CO)C(=O)N[C@@H](C)C(=O)O)C(C)C)C(=O)O) [Compound 2] |

Further lines, the binder ahead of its results:

| Binder | EC50 hGLP-1R CHO-K1 [nM] (cAMP) [1] | Ratio GLP-1/Glucagon (EC50 hGLP-1R / EC50 hGCGR) [1] [ratio] | EC50 hGCGR CHO-K1 [nM] (cAMP) [2] | EC50 GLP-1R (murine insulinoma cells) [nM] (cAMP) [3] | EC50 GLP-1R Rat hepat. [nM] (inhibition of glycogen synthesis) [4] |
| --- | --- | --- | --- | --- | --- |
| H-H[Aib]QGTFTSDYSKYLDEK([γGlu-Palmitoyl])RAKDFIEWLLS-OH (SMILES CCCCCCCCCCCCCCCC(=O)N[C@@H](CCC(=O)NCCCC[C@H](NC(=O)[C@H](CCC(=O)O)NC(=O)[C@H](CC(=O)O)NC(=O)[C@H](CC(C)C)NC(=O)[C@H](Cc1ccc(O)cc1)NC(=O)[C@H](CCCCN)NC(=O)[C@H](CO)NC(=O)[C@H](Cc1ccc(O)cc1)NC(=O)[C@H](CC(=O)O)NC(=O)[C@H](CO)NC(=O)[C@@H](NC(=O)[C@H](Cc1ccccc1)NC(=O)[C@@H](NC(=O)CNC(=O)[C@H](CCC(N)=O)NC(=O)C(C)(C)NC(=O)[C@@H](N)Cc1c[nH]cn1)[C@@H](C)O)[C@@H](C)O)C(=O)N[C@@H](CCCNC(=N)N)C(=O)N[C@@H](C)C(=O)N[C@@H](CCCCN)C(=O)N[C@@H](CC(=O)O)C(=O)N[C@@H](Cc1ccccc1)C(=O)N[C@H](C(=O)N[C@@H](CCC(=O)O)C(=O)N[C@@H](Cc1c[nH]c2ccccc12)C(=O)N[C@@H](CC(C)C)C(=O)N[C@@H](CC(C)C)C(=O)N[C@@H](CO)C(=O)O)[C@@H](C)CC)C(=O)O) [Compound 11] | 0.64 | 1.05 | 0.61 | 1.01 |  |
| H-H[Aib]QGTFTSDYSKYLDSK([γGlu-Palmitoyl])AAHDFVEWLESA-NH2 (SMILES CCCCCCCCCCCCCCCC(=O)N[C@@H](CCC(=O)NCCCC[C@H](NC(=O)[C@H](CO)NC(=O)[C@H](CC(=O)O)NC(=O)[C@H](CC(C)C)NC(=O)[C@H](Cc1ccc(O)cc1)NC(=O)[C@H](CCCCN)NC(=O)[C@H](CO)NC(=O)[C@H](Cc1ccc(O)cc1)NC(=O)[C@H](CC(=O)O)NC(=O)[C@H](CO)NC(=O)[C@@H](NC(=O)[C@H](Cc1ccccc1)NC(=O)[C@@H](NC(=O)CNC(=O)[C@H](CCC(N)=O)NC(=O)C(C)(C)NC(=O)[C@@H](N)Cc1c[nH]cn1)[C@@H](C)O)[C@@H](C)O)C(=O)N[C@@H](C)C(=O)N[C@@H](C)C(=O)N[C@@H](Cc1c[nH]cn1)C(=O)N[C@@H](CC(=O)O)C(=O)N[C@@H](Cc1ccccc1)C(=O)N[C@H](C(=O)N[C@@H](CCC(=O)O)C(=O)N[C@@H](Cc1c[nH]c2ccccc12)C(=O)N[C@@H](CC(C)C)C(=O)N[C@@H](CCC(=O)O)C(=O)N[C@@H](CO)C(=O)N[C@@H](C)C(N)=O)C(C)C)C(=O)O) [Compound 5] | 0.16 | 0.35 | 0.46 | 0.54 | 0.03 |
| H-HSQGTFTSDYSKYLDSK([γGlu-Palmitoyl])AAHDFVEWLLRA-OH (SMILES CCCCCCCCCCCCCCCC(=O)N[C@@H](CCC(=O)NCCCC[C@H](NC(=O)[C@H](CO)NC(=O)[C@H](CC(=O)O)NC(=O)[C@H](CC(C)C)NC(=O)[C@H](Cc1ccc(O)cc1)NC(=O)[C@H](CCCCN)NC(=O)[C@H](CO)NC(=O)[C@H](Cc1ccc(O)cc1)NC(=O)[C@H](CC(=O)O)NC(=O)[C@H](CO)NC(=O)[C@@H](NC(=O)[C@H](Cc1ccccc1)NC(=O)[C@@H](NC(=O)CNC(=O)[C@H](CCC(N)=O)NC(=O)[C@H](CO)NC(=O)[C@@H](N)Cc1c[nH]cn1)[C@@H](C)O)[C@@H](C)O)C(=O)N[C@@H](C)C(=O)N[C@@H](C)C(=O)N[C@@H](Cc1c[nH]cn1)C(=O)N[C@@H](CC(=O)O)C(=O)N[C@@H](Cc1ccccc1)C(=O)N[C@H](C(=O)N[C@@H](CCC(=O)O)C(=O)N[C@@H](Cc1c[nH]c2ccccc12)C(=O)N[C@@H](CC(C)C)C(=O)N[C@@H](CC(C)C)C(=O)N[C@@H](CCCNC(=N)N)C(=O)N[C@@H](C)C(=O)O)C(C)C)C(=O)O) [Compound 3] | 0.91 | 2.6 | 0.35 | 1.06 | 0.16 |
| HXQGTFTSDYSKYLDEXAAKDFIEWLLSA (Aib at position 2; Lys 17 K(Hexadecanoyl-isoGlu); C-terminal amide (-NH2)) [Compound 4] | 0.38 | 0.24 | 1.56 | 0.95 | 0.35 |
